Measurements taken from article PMC8318589, “Structure and analysis of nanobody binding to the human ASIC1a ion channel” (eLife, 2021).

How the values were obtained:
[1] = biological target: T1, human ASIC1a-Flag (human) (UniProt P78348)
T1 sequence: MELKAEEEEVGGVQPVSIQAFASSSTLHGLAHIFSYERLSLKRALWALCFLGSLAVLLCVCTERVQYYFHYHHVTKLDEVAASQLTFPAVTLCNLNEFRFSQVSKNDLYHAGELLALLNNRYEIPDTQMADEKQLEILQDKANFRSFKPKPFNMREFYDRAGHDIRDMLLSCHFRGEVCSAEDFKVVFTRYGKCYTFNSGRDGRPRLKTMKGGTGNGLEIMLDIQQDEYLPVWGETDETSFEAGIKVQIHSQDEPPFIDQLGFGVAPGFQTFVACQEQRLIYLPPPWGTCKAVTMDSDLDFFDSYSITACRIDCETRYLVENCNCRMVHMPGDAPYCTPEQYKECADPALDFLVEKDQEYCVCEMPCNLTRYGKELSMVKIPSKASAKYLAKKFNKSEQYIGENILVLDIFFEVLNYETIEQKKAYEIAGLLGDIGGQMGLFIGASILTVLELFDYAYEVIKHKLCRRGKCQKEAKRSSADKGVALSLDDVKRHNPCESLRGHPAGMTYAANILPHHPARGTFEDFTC

[2] = biological target: T2, hASIC1a comprising amino acids 12–478 with a Strep Tag II in the N-terminus (human, UniProt P78348-2)
[3] = biological target: the molecule itself; assay: cryo-EM structure; hASIC1a-Nb.C1 complex in DDM, pH 7.4, 20 mM HEPES, 150 mM NaCl, 5 mM CaCl2, 3.8 mg/mL; C3 symmetry imposed
[4] = biological target: T3, human ASIC1a-Flag (Homo sapiens, ASIC1a (528 aa isoform), UniProt P78348-2); assay: immunostaining of cells or tissue; transfected cells on coverslips incubated with Nb (1 nM, 1 hr, on ice) in the medium, washed, fixed, permeabilized; Nb detected by anti-HA, channel by anti-Flag; confocal microscopy; conditions: one partner purified
T3 construct: human acid-sensing ion channel 1a (ASIC1a); this molecule is used for them; also called hASIC1a; hASIC1a-Flag; source: HEK293T / HEK-293 cells, transfected (pcDNA3.1), on cells

[5] = biological target: T3, human ASIC1a-Flag; assay: immunostaining of cells or tissue; chase: live HEK293 cells transfected with hASIC1a-Flag incubated with 10 nM Nb.C1-HA for 30 min at 18°C, washed, followed for 0-4 hr with a wash each hour, then fixed; Nb.C1 fluorescence normalised to time 0; koff estimated from the lack of decay; conditions: one partner purified
[6] = biological target: T4, mouse ASIC2a-Flag (Mus musculus, ASIC2a (512 aa isoform), UniProt Q925H0-1); assay: immunostaining of cells or tissue; transfected cells on coverslips incubated with Nb (1 nM, 1 hr, on ice) in the medium, washed, fixed, permeabilized; Nb detected by anti-HA, channel by anti-Flag; confocal microscopy; conditions: one partner purified
T4 construct: mouse acid-sensing ion channel 2a (ASIC2a); also called mASIC2a; source: transfected cells, on cells

[7] = biological target: T5, mouse ASIC3-Flag (Mus musculus, ASIC3, UniProt Q6X1Y6); assay: as above; conditions: one partner purified
T5 construct: mouse acid-sensing ion channel 3 (ASIC3); also called mASIC3; source: transfected cells, on cells

[8] = biological target: T6, chicken ASIC1-Flag (Gallus gallus, ASIC1, UniProt Q1XA76); assay: as above; conditions: one partner purified
T6 construct: chicken acid-sensing ion channel 1 (cASIC1); also called cASIC1; source: transfected cells, on cells

[9] = biological target: T7, mouse ASIC1a-Flag (Mus musculus, ASIC1a, UniProt Q6NXK8-1); assay: as above; conditions: one partner purified
T7 construct: mouse acid-sensing ion channel 1a (ASIC1a); also called mASIC1a; mASIC1; source: transfected cells, on cells

[10] = biological target: T2, hASIC1a comprising amino acids 12–478 …; assay: SEC; purified Nb.C1 added to crude membranes of 293 F cells expressing Strep-tagged hASIC1a (4°C, 3 hr) before solubilisation with 1% DDM; Strep Tactin XT affinity purification, then Superdex 200 Increase; peak run on Coomassie-stained SDS-PAGE; conditions: one partner purified
[11] = biological target: T2, hASIC1a comprising amino acids 12–478 …; assay: SPR + immunostaining of cells or tissue; equilibrium constant worked out from the smallest kon of the SPR (purified, immobilised hASIC1a) and the upper limit of koff from the live-cell chase (hASIC1a on HEK293 cells); conditions: one partner purified
[12] = biological target: T2, hASIC1a comprising amino acids 12–478 …; assay: SPR; Biacore S200; hASIC1a amine-coupled to a CM5 chip (diluted in sodium acetate pH 5.0, 0.05% DDM); Nb.C1 injected at 0.41-100 nM, 30 µL/min; association 100 or 300 s, dissociation 300 or 3600 s; two protein preparations; global fits to association time courses; conditions: both partners purified

T5 sequence (Q6X1Y6 whole entry): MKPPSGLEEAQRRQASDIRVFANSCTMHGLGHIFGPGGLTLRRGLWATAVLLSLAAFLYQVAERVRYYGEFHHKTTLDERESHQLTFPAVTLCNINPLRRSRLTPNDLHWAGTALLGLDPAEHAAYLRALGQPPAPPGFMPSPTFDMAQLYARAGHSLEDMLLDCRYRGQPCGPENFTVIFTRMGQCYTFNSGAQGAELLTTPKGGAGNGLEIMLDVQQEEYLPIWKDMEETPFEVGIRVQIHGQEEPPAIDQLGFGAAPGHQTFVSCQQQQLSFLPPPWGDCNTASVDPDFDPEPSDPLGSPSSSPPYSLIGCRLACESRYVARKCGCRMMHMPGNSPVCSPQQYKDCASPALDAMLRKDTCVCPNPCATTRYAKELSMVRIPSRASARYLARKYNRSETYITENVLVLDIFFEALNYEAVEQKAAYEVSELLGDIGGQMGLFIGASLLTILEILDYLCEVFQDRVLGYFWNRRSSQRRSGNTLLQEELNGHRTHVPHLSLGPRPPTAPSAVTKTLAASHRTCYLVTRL
T4 sequence (Q925H0 whole entry, canonical isoform): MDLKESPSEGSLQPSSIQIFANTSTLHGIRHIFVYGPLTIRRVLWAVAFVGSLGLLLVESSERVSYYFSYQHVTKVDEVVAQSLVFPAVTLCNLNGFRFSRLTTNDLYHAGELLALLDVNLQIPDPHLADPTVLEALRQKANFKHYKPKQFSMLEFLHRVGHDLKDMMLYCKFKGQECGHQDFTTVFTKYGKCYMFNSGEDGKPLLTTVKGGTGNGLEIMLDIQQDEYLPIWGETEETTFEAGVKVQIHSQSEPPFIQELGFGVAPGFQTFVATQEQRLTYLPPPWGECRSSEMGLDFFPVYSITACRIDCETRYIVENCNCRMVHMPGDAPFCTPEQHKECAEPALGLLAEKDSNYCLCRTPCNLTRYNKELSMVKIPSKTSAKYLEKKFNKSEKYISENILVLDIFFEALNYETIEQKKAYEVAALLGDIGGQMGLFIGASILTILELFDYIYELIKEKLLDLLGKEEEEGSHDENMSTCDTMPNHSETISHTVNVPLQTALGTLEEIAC

Molecule: psalmotoxin-1 (PcTx1) (from UniProt P60514 1-40) (peptide)
- time constant of recovery of pH 6.0-induced currents after 60 s with 10 nM PcTx1, oocytes expressing hASIC1a (two-electrode voltage clamp) [1]: 220 s

B1: E9-3 (VHH)
VHH: QLQLVESGGDLVQPGGSLRLTCAASGFTFSSLTMSWHRQALGKERELVAAIGEATGATYYVESVKGRFIISRDNAKNTVFLQMNSLKPEDTAVYYCKAASSSNDYWGQGTQVTVSS
- binding result [2]: binds

B2: 1A-B1 (VHH)
chain: QLQLVESGGGLVQTGESLRLSCVASGIAFSRYIVGWYRQAPGKERELVASVRRNSGTNYVGDLKGGFFISSKNANNTVYQEMNNLKPADDAVYYCSTARPFLGDLPNNCGYWTQVTVSS
- binding result [2]: binds

B3: 2B-E6 (VHH)
VHH: QVQLVESGGGLVQPGGSLRLSCAASGRTVSSYVMGWYRQAPGKEREFVASVRWTTGLTYVEDSVKGRFTISRDNTKSTVDLQMNSLKPEDTAIYYCNARPLVMLGPTEAGYWGQGTQVTVSS
- binding result [2]: binds

B4: 2B-D4 (VHH)
VHH: QVQLVESGGGLVQAGGSLRLSCAASGIAFSRYTMGWYRQAPGKQRELVADFSREGTTRYADAVKGRFTISRDNAKNTVYLEMNSLKPEDTAVYYCNARRPFLGNLANNWGRGTQVTVSS
- binding result [2]: binds

B5: G4 (VHH)
VHH: QLQLVESGGGLVQPGGSLRLTCAASGFALDDYTIGWFRQAPGNEREGVACMHGGGIHIADSLKGRITISRDNAKNTVYLQMNSLKPEDTAVYYCAARLATATRWTCKLSDMDYWGKGTLVTVSS
- binding result [2]: binds

B6: B11 (VHH)
VHH: QLQLVESGGGLVQPGGSLRLSCAASGLTLDNYAIGWFRQVPGKEREDVSCISTSHGSLHYANSVKGRFTISVDAAENTVYLQMNSLNAEDTAVYFCAARGFDSDCSVYGMDFWGKGTPVTVSS
- binding result [2]: binds

B7: H7 (VHH)
VHH: QLQLVESGGGLVQPGGSLRLSCAASGGTIDYYTIGWFRQAPGKEREGVSCIISKADSTKYADTVEGRFTISSDKAKNTVYLQMNSLQPEDTGVYFCAAYRVLIAGRNPGCLLNPPAEYDYWGQGTQVTVSS
- binding result [2]: binds

B8: G10 (VHH)
VHH: QVQLVESGGGLVQPGGSLRLSCAASGGTLDVYTIGWFRQAPGKEREGLSCLSSSDGSTYYADSVKGRFTISRDNAKNTMYLQMNSLKPEDTAVYYCVAGAWTHVQAMCVTCFGCDWGQGTQVTVVS
- binding result [2]: binds

B9: hASIC1a comprising amino acids 12–478 with a Strep Tag II in the N-terminus (domain or fragment, human, UniProt P78348-2 12-478, looked up)
chain: GVQPVSIQAFASSSTLHGLAHIFSYERLSLKRALWALCFLGSLAVLLCVCTERVQYYFHYHHVTKLDEVAASQLTFPAVTLCNLNEFRFSQVSKNDLYHAGELLALLNNRYEIPDTQMADEKQLEILQDKANFRSFKPKPFNMREFYDRAGHDIRDMLLSCHFRGEVCSAEDFKVVFTRYGKCYTFNSGRDGRPRLKTMKGGTGNGLEIMLDIQQDEYLPVWGETDETSFEAGIKVQIHSQDEPPFIDQLGFGVAPGFQTFVACQEQRLIYLPPPWGTCKAVTMDSDLDFFDSYSITACRIDCETRYLVENCNCRMVHMPGDAPYCTPEQYKECADPALDFLVEKDQEYCVCEMPCNLTRYGKELSMVKIPSKASAKYLAKKFNKSEQYIGENILVLDIFFEVLNYETIEQKKAYEIAGLLGDIGGQMGLFIGASILTVLELFDYAYEVIKHKLCRRGKCQKEAKRS
notes: human acid-sensing ion channel 1a (ASIC1a), residues 12-478 (50 a.a. carboxyl terminal deletion); Trimer in the cryo-EM structure; also called human ASIC1a; recombinant hASIC1a protein; source: HEK293F (FreeStyle 293 F) cells, transfected (pcDNA3.1); crude membranes, solubilised in DDM, purified (Strep Tactin XT, SEC); not shown: Strep Tag II, N-terminal, kept
- stoichiometry N [3]: 3

B10: Nb D10 (VHH)
VHH: QVQLVESGGGLVQPGGSLRLSCAASGFTFNRATMSWYRQAPGKERELVATIGSFGISTNYTDSVKGRFTISRDNAKNTLYLQMNSLKPEDTAVYYCNARYRSTYPWGQGTQVTVSS
notes: alpaca VHH selected against hASIC1a; source: E. coli WK6, periplasm
- binding result [4]: binds

B11: Nb.C1 (VHH)
VHH: QVQLVESGGGLVQPRGSLRLSCAASGFTFSRAAMSWYRQAPGKEREMVSTIGSFGVSTNYSDSVKGRFTISRDNAKNTVYLHMNSLKPEDTAVYYCNARYRSSYPWGQGTQVTVSS
notes: alpaca VHH selected by phage display against hASIC1a; Expressed from the phagemid pADL-22c; also called Nb.1C; Nb.C1-HA; source: E. coli WK6, periplasm, purified (Ni-NTA); not shown: HA, C-terminal, kept
- koff [5]: ≤ 1.4e-05 s⁻¹
- binding result [6]: no binding (tested: 1 nM)
- binding result [7]: no binding (tested: 1 nM)
- binding result [8]: no binding (tested: 1 nM)
- binding result [9]: no binding (tested: 1 nM)
- stoichiometry N [10]: 1
- Kd [11]: ≤ 0.2 nM
- kon [12]: 68000 to 220000 M⁻¹ s⁻¹

B12: Nb H10 (VHH)
VHH: QVQLVESGGGLVQPGGSLRLTCAASGFTFSRATMSWYRQAPGKERELVATIGSFGVSTNYADSVKGRFTISRDNAKNTAYLYMNNLKPEDTAVYYCNAHYRSTYPWGQGTQVTVSS
notes: as for B10
- binding result [4]: binds

B13: Nb C4 (VHH)
VHH: QVQLVESGGGLVQPGGSLRLSCAASGFTFSRAAMSWYRQAPGKEREMVATIGSFGISTNYSDSVKGRFTISRDNAKNTVYLHMNSLKPEDTAVYYCNARYRSTYPWGQGTQVTVSS
notes: alpaca VHH selected against hASIC1a; The name is read out of the printed "C1-4-5"; also called C4 (printed within "C1-4-5"); source: E. coli WK6, periplasm
- binding result [4]: binds

B14: F7 (VHH)
VHH: QVQLVESGGGLVMAGGSLSLSCAASGRLFSTWTMGWFRQAPGKEREFVGAIRRVGDSPSYADSVKGRFTISRDSTKNALYLKMNSLKPEDTAVYYCAAKRFGNEYEYWGQGTQVTVSS
- binding result [2]: binds

B15: A12-2 (VHH)
VHH: QLQLVESGGGLVMAGGSLSLSCAASGRLFSTWTMGWFRQAPGKEREFVGAIRRVGDSPSYADSVKGRFTISRDSTKNALYLKMNSLKPEDTAVYYCAAKRFGNEYEYWGQGTQVTVSS
- binding result [2]: binds

B16: G11 (VHH)
VHH: QLQLVESGGGLVMAGGSLSLSCAASGRTFSTWTMAWFRQAPGKEREFVGAIRRIGDSPSYADSVKGRFTISRDNAKNALYLKMNSLKPEDTAVYYCAAKRFGNEYEYWGQGTQVTVSS
- binding result [2]: binds

B17: G4-3 (VHH)
VHH: QVQLVESGGGLVQPGGSLRLSCAASGSTLDYYAIGWFRQAPGKEREGVSCISRSGGSTYYADSVKGRFTISRDNAKNTVYLQMNSLKPEDTAVYYCAADRGAVGGIFNSDYDAQNSLPPCSYGMDYWGKGTLVTVSS
- binding result [2]: binds
